Source: patent US7473541B2, “Identification, cloning, expression, and purification of three novel human calcium-independent phospholipase A2 family members possessing triacylglycerol lipase and acylglycerol transacylase activities” (priority 2004, dated 2009)
Entries after “also recorded” stand apart in the source; their conditions may differ.

B1: iPLA2epsilon(His)6: recombinant human calcium-independent phospholipase A2 epsilon (adiponutrin, SEQ ID NO: 1) expressed in Sf9 cells (protein, listed as Homo sapiens)
chain: MYDAERGWSLSFAGCGFLGFYHVGATRCLSEHAPHLLRDARMLFGASAGALHCVGVLSGIPLEQTLQVLSDLVRKARSRNIGIFHPSFNLSKFLRQGLCKCLPANVHQLISGKIGISLTRVSDGENVLVSDFRSKDEVVDALVCSCFIPFYSGLIPPSFRGVRYVDGGVSDNVPFIDAKTTITVSPFYGEYDICPKVKSTNFLHVDITKLSLRLCTGNLYLLSRAFVPPDLKVLGEICLRGYLDAFRFLEEKGICNRPQPGLKSSSEGMDPEVAMPSWANMSLDSSPESAALAVRLEGDELLDHLRLSILPWDESILDTLSPRLATALSEEMKDKGGYMSKICNLLPIRIMSYVMLPCTLPVESAIAIVQRLVTWLPDMPDDVLWLQWVTSQVFTRVLMCLLPASRSQMPVSSQQASPCTPEQDWPCWTPCSPEGCPAETKAEATPRSILRSSLNFFLGNKVPAGAEGLSTFPSFSLEKSLHHHHHH
modifications: C-terminal His6 tag
B2: iPLA2zeta(His)6: recombinant human calcium-independent phospholipase A2 zeta (TTS-2.2, SEQ ID NO: 2) expressed in Sf9 cells (protein, listed as Homo sapiens)
chain: MFPREKTWNISFAGCGFLGVYYVGVASCLREHAPFLVANATHIYGASAGALTATALVTGVCLGEAGAKFIEVSKEARKRFLGPLHPSFNLVKIIRSFLLKVLPADSHEHASGRLGISLTRVSDGENVIISHFNSKDELIQANVCSGFIPVYCGLIPPSLQGVRYVDGGISDNLPLYELKNTITVSPFSGESDICPQDSSTNIHELRVTNTSIQFNLRNLYRLSKALFPPEPLVLREMCKQGYRDGLRFLQRNGLLNRPNPLLALPPARPHGPEDKDQAVESAQAEDYSQLPGEDHILEHLPARLNEALLEACVEPTDLLTTLSNMLPVRLATAMMVPYTLPLESALSFTIRLLEWLPDVPEDIRWMKEQTGSICQYLVMRAKRKLGRHLPSRLPEQVELRRVQSLPSVPLSCAAYREALPGWMRNNLSLGDALAKWEECQRQLLLGLFCTNVAFPPEALRMRAPADPAPAPADPASPQHQPAGPAPLLSTPAPEARPVIGALGLHHHHHH
modifications: C-terminal His6 tag
B3: iPLA2eta(His)6: recombinant human calcium-independent phospholipase A2 eta (GS2, SEQ ID NO: 3) expressed in Sf9 cells (protein, listed as Homo sapiens)
chain: MKHINLSFAACGFLGIYHLGAASALCRHGKKLVKDVKAFAGASAGFTSLVASVLLTAPEKIEECNQFTYKFAEEIRRQSFGAVTPGYDFMARLRSGMESILPPSAHFTELAQNRLHVSITNAKTRENHLVSTFSSREDLIKVLLASSFVPIYAGLKLVEYKGQKWVDFTGGLTNALPILPVGRTVTISPFSGRLDISPQDKGQLDLYVNIAKQDIMLSLANLVRLNQAFTLFPPSKRKMESLYQCGFDDTVKFLLKENWFEHHHHHH
modifications: C-terminal His6 tag

Key:
Format in all cases: biochemical
[1] = Assay for calcium-independent phospholipase A2 activity of recombinant enzymes; conditions: for calcium-independent PLA2 activity: Sf9 cytosol and membrane fractions, 1-palmitoyl-2-[1-14C]-oleoyl-sn-glycerol-3-phosphocholine, relative to control; for PLA2 hydrolysis rate: affinity purified, 30 min
Text: […] Reactions were terminated by addition of 100 microliters of butanol and extraction of the radiolabeled product and remaining substrate into the butanol layer by vigorous vortexing. Samples were spotted on LK6 Silica Gel 60 Å TLC plates, overlaid with oleic acid standard, dried, and developed in petroleum etherlethyl etherlacetic acid (70:30:1). The region of the plate corresponding to the oleic acid standard (visualized by iodine staining) was scraped into scintillation vials and quantified by liquid scintillation spectrometry.

[2] = Assay for triolein lipase activity of recombinant enzymes; conditions: for triolein lipase specific activity: peak fractions from Co2+ TALON affinity column
Experimental: Assay for Triolein Lipase Activity—Sample fractions were incubated in 85 mM potassium phosphate, pH 7.0 containing 2 mM EDTA and 2 mM DTT for 15 min at 37° C. in the presence of a suspension of 100 microM [9,10-^3H(N)]-triolein (100 microCi/micromol) in 25 microM egg yolk lecithin, and 100 microM sodium taurocholate. In some reactions, BEL was added at the indicated concentrations and incubated with enzyme at room temperature for 3 min prior to the addition of radiolabeled substrate. After extraction of radiolabeled reaction products and remaining substrate into butanol, samples were spotted on TLC plates, overlaid with oleic acid standard, dried, and developed in chloroformlmethanol/NH4OH (65:25:5). The region of the plate corresponding to the oleic acid standard (visualized by iodine staining) was scraped into scintillation vials and quantified by liquid scintillation spectrometry.

[3] = Assay for acylglycerol transacylase activity; conditions: affinity purified
Experimental: Assay for Acylglycerol Transacylase Activity—Highly purified CO^2+-TALON affinity chromatographic fractions containing iPLA2epsilon(His)6 (6xHis tag disclosed as SEQ ID NO: 29), iPLA2zeta(His)6 (6xHis tag disclosed as SEQ ID NO: 29) or iPLA2eta(His)6 (6xHis tag disclosed as SEQ ID NO: 29) (40 microliters) were incubated in 85 mM potassium phosphate, pH 7.0 (200 microliters final volume) for 15 mm at 37° C. in the presence of 10 microM [1-^14-C]-mono-olein (acyl donor), 25 microM acyl acceptor (mono-olein or diolein), 25 microM egg yolk lecithin, and 25 microM sodium taurocholate. After extraction of radiolabeled reaction products and remaining substrate into butanol, samples were spotted on TLC plates, overlaid with trileiddiolein standards, dried, and developed in petroleum etherlethyl etherlacetic acid (75:25:1). The regions of the plate corresponding to either the diolein, triolein, and fatty acid standards (visualized by iodine staining) were scraped into scintillation vials and quantified by liquid scintillation spectrometry.

[4] = 1-palmitoyl-2-[1-14C]-arachidonyl-sn-glycerol-3-phosphocholine
[5] = 1-palmitoyl-2-[1-14C]-linoleoyl-sn-glycerol-3-phosphocholine

| transacylation specific activity relative to iPLA2epsilon(His)6 and iPLA2zeta(His)6 [3] | Molecule | calcium-independent PLA2 activity [1] | PLA2 hydrolysis rate [1, 4] | PLA2 hydrolysis rate [1, 5] | triolein lipase specific activity [2] | triolein lipase specific activity relative to iPLA2epsilon(His)6 and iPLA2zeta(His)6 ([2]; Sf9 fractions, normalised to immunoreactive protein) |
| --- | --- | --- | --- | --- | --- | --- |
|  | B1 | 20-50 pmol·min^−1·mg protein^−1 | 100±4 pmol arachidonic acid·min^31 1·mg protein^−1 | 57±3 pmol linoleic acid·min^−1·mg protein^−1 | 8 nmol oleic acid·min^−1·mg^−1 protein |  |
|  | B2 | did not yield detectable amounts; also recorded: did not display measurable iPLA2 activity | 119±6 pmol arachidonic acid·min^31 1·mg protein^−1 | 57±19 pmol linoleic acid·min^−1·mg protein^−1 | 9 nmol oleic acid·min^−1·mg^−1 protein |  |
| approximately 10 fold | B3 | did not yield detectable amounts; also recorded: did not display measurable iPLA2 activity | 134±42 pmol arachidonic acid·min^31 1·mg protein^−1 | 77±23 pmol linoleic acid·min^−1·mg protein^−1 | 52 nmol oleic acid·min^−1·mg^−1 protein | 5-10 fold |
